In patent publication US20120225828A1:
Bridge positions count the residues as written; N and C are the ends. Square brackets hold non-standard residues; d marks the D form. Nle = CCCC[C@H](N)C(=O)O; Dab = NCC[C@H](N)C(=O)O

Experiments:
[1] = target: recombinant human melanocortin-1 receptor hMCR-1a (human) (UniProt Q01726); test: competition with [I125]-NDP-α-MSH; HEK-293 hMCR-1a membrane homogenates
[2] = target: recombinant human melanocortin-4 receptor hMCR-4 (human) (UniProt P32245); test: competition with [I125]-NDP-α-MSH; HEK-293 hMCR-4 membrane homogenates
Sequence of recombinant human melanocortin-4 receptor hMCR-4 (human) (P32245 whole entry): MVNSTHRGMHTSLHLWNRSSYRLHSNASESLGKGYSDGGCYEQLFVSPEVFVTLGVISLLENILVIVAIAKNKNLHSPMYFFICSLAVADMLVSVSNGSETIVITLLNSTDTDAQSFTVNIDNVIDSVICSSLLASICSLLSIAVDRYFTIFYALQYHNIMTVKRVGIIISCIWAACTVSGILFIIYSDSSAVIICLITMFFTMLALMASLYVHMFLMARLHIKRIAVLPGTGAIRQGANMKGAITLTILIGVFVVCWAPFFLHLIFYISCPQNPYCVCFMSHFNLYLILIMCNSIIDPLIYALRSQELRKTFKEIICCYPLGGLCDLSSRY

Sequence of recombinant human melanocortin-1 receptor hMCR-1a (human) (Q01726 whole entry): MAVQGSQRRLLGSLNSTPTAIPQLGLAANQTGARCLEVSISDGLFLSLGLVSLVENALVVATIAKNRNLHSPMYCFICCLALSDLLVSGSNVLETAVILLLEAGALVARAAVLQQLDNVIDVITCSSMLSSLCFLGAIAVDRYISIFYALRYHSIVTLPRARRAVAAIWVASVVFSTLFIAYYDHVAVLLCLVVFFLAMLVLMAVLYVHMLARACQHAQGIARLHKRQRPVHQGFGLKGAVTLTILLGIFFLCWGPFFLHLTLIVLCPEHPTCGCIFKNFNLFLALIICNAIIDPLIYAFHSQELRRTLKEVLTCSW

Ki [1] | Ki [2] | Binder
9 nM | 10000 nM | Ac-[Nle]EH[dF]G[Dab]W-NH2 (lactam 2-6; SMILES CCCC[C@H](NC(C)=O)C(=O)N[C@H]1CCC(=O)NCC[C@@H](C(=O)N[C@@H](Cc2c[nH]c3ccccc23)C(N)=O)NC(=O)CNC(=O)[C@@H](Cc2ccccc2)NC(=O)[C@H](Cc2c[nH]cn2)NC1=O) [Ac-Nle-cyclo(Glu-His-D-Phe-Gly-Dab)-Trp-NH2 (SEQ ID NO: 50)]
2 nM | 7380 nM | Ac-[Nle]EH[dF]R[Dab]K-NH2 (lactam 2-6; SMILES CCCC[C@H](NC(C)=O)C(=O)N[C@H]1CCC(=O)NCC[C@@H](C(=O)N[C@@H](CCCCN)C(N)=O)NC(=O)[C@H](CCCNC(=N)N)NC(=O)[C@@H](Cc2ccccc2)NC(=O)[C@H](Cc2c[nH]cn2)NC1=O) [Ac-Nle-cyclo(Glu-His-D-Phe-Arg-Dab)-Lys-NH2 (SEQ ID NO: 55)]
0.08 nM |  | Ac-[Nle]EH[dF]A[Dab]W-NH2 (lactam 2-6; SMILES CCCC[C@H](NC(C)=O)C(=O)N[C@H]1CCC(=O)NCC[C@@H](C(=O)N[C@@H](Cc2c[nH]c3ccccc23)C(N)=O)NC(=O)[C@H](C)NC(=O)[C@@H](Cc2ccccc2)NC(=O)[C@H](Cc2c[nH]cn2)NC1=O) [Ac-Nle-cyclo(Glu-His-D-Phe-Ala-Dab)-Trp-NH2]
0.08 nM | 10000 nM | Ac-[Nle]EH[dF]A[Dab]W-NH2 (lactam 2-6; SMILES CCCC[C@H](NC(C)=O)C(=O)N[C@H]1CCC(=O)NCC[C@@H](C(=O)N[C@@H](Cc2c[nH]c3ccccc23)C(N)=O)NC(=O)[C@H](C)NC(=O)[C@@H](Cc2ccccc2)NC(=O)[C@H](Cc2c[nH]cn2)NC1=O) [Ac-Nle-cyclo(Glu-His-D-Phe-Ala-Dab)-Trp-NH2 (SEQ ID NO: 51)]
